# The nanobody polyreactivity screen of Harvey et al. (2022)
# Experiment: yeast display, Sf9 membrane polyspecificity reagent, FACS + sequencing; frameworks hold sequencing errors
# How it was run: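 A synthetic nanobody library was expressed on Saccharomyces cerevisiae BJ5465 by galactose induction for 36–48 hours. The library was stained for 1 hour at 4 °C with 10% biotinylated, detergent-solubilized Sf9 membrane reagent and enriched with streptavidin microbeads before FACS. Low and high (top ~1%) gates were set on anti-HA fluorescence for expression and streptavidin fluorescence for reagent binding, and each polyreactivity label reflects the gate of origin.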
row,Sequence,polyreactivity (PSR sort gate)
1,QVQLVETGGGLVQAGGSLRLSCAASGITITVYAMGWYRQAPGKERELVAAINSGSSTNYADSVKGRFTISRDNAKNTVYLQMNSLKTEVTAVYYCDASYRTLPDKKRYCYWGQGTQVTVSS,high polyreactivity
2,QVQLVETGGGLVQAGGSLRLSCAASGLTFIEYAMGWYRQAPGKERELVAAISSGGRTYYADSVKGRFTISRDNAKNTVYLQMNSLKPEDTAVYYCNARGYRRWYNYWGQGTQVTVSS,high polyreactivity
3,QVQLVETGGGLVQAGGSLRLSCAASGLTFRGYAKGWYIQAPGKERELVARITIGSSTNYADSVKGRFTISRDIAKNTVYLQMNSLKQEDSAVYYCAADKPGQFTPSYNKIYDYWGQGTQVTVSS,low polyreactivity
4,QVQLVETGGGLVQAGGSLRLSCAASGLTFYVYAMGWYRQAPGKERELVAAISSGGRTYYADSVKGRFTISRDNAKNTVYLQMNSLKPEDTAVYYCAAVRHRNYGYWGQGTQVTVSS,high polyreactivity
5,QVQLVETGGGLVQAGGSLRLSCAASGNTFQRYTMGWYRQAPGNERELVAAITWSGGNTYYADSVKGRFTISRDNAKNTVYLQMNSLKPVDTAVYYCNADYPTTAYDYWGQGTQVSVSS,low polyreactivity
6,QVQLVETGGGLVQAGGSLRLSCAASGRIFDIYAMGWYRQAPGKERELVAAIDESGGSTYYADSVKGRFTISRDNAKNTVYLQMNSLKPEDTAVYYCATDDTWTISYGWYWFTYEYWGQGTQVTVSS,low polyreactivity
7,QVQLVETGGGLVQAGGSLRLSCAASGRIFHRNAMGWYRQAPGKEREFVAGITTGSSTYYADSVKGRFTISRDNAKNTVYLQMNSLKPEDTAVYYCAARYFIGSYRPRFDYWGQGTQVTVSS,high polyreactivity
8,QVQLVETGGGLVQAGGSLRLSCAASGRIFKVYAMGWYRQAPGKERELDAAITSRGGSTYYADSVKGRFTISRDNAKNTVYLQMNSLKPEDTAVYYCAAARGLPSNKYYYWGQGTQVTVSS,high polyreactivity
9,QVQLVETGGGLVQAGGSLRLSCAASGRIFYYNTMGWYRQAPGKERELVAAISSTASTTYADSVKGRFTISRDNAKNTVYLQMNSLKPEDTAVYYCAADHRYHWAYPRGYYYWGQGTQVTVSS,high polyreactivity
10,QVQLVETGGGLVQAGGSLRLSCAASGRTFAYYVMGWYRQAPGKERELVAAISSDGSTYYADSVKGRFTISRDNAKNTVNLQMNSLKPEDTAVYYCKVDVLLVHDYVFYSWMDYWGQGTQVTVSS,high polyreactivity
11,QVQLVETGGGLVQAGGSLRLSCAASGRTFWGHAMGWYRQAPRKERELVASISSRGSSTYYADSVKGRFTISRDNAKNTVYLQMNSLKPEDTAVYYCAARTHYFPWPWYVWDYDSWGQGTQVTVSS,low polyreactivity
12,QVQLVETGGGLVQAGGSLRLSCAASGSIFVRKAMGWYRQAPGKERELVATISYRGASTYYADSVKGRFTISRDNAKNTVYLQLNCLKPEDTAVYYCNAPRFVGLNVYGYDYWGQGTQVTLSS,high polyreactivity
13,QVQLVETGGGLVQAGGSLRLSCAASGSIFVYHAMGGYRQAPGKETEFVAVISNSGSRTYYADSVKGRFTISRDNAKNTVYLQMNSLKPEDTAVYYCAARYYYFQRAYDYWGQGTQVTVSS,high polyreactivity
14,QVQLVETGGGLVQAGGSLRLSCAASGSIFYYNTMGWYRQAPGKERELVAAISRSGTSTFYADSVKGRFTISRHNAKNTVYLQMNSLKPEDTAVYYCNAESLGWYRLYTVDYWGQGTQVTVSS,low polyreactivity
15,QVQLVETGGGLVQAGGSLRLSCAASGSTFGYNGMGWYRQAPGKERELVAAISGGARTYADSVKGRFTISRDNAKNTVYLQMNSLIPEDTAVYYCAADSPVSVTADDGYWGLGTQVTVSS,low polyreactivity
16,QVQLVETGGGLVQAGGSLRLSCAASGSTFVWYDMGRYRQAPGKERELVATITSGGITTYADSVKGRFTISRDNAKNTVYLKMNSLKPEDTAVYYCNADLYYWLRYYDRNDYLGQGTQVTVSS,low polyreactivity

row,Sequence,polyreactivity (PSR sort gate)
1,QVQLVETGGGLVQAGGSLRLSCAASGSTFYDNAMGWYRQAPGKERELVAAITRSGTRTYYADSVKGRFTISRDNAKNTVYLQMNSLKPEDTAVYYCNVVLYSYVTYRIITHGTYGYWGQGTQVTVSS,high polyreactivity
2,QVQLVETGGGLVQAGGSLRLSCAASGTIFTNYTMGWYRQAPGKERELVASISWSGGRTYYADSVKGRFTISRDNAKNTVYLQMNSLKPEDTAVYYCAAVSRAPGLRYDYWGQGTQVTVSS,high polyreactivity
3,QVQLVETGGGLVQAGGSLRLSCAASGYTLPANGKGWYRQAPGKDRELVAAISFIAGSTYYADSVNGRFTISRDNAKNTVYLQMNSLKPEDTAGYYCATQFPRSTIYDYWGQGTQVTVSS,low polyreactivity
4,QVQLVETGGGLVQAGGSLRLSCAASVRTFHGYAMGWYRQAPGKERELVAAITCTGGRTYYADSVKGRFTISRDNAKNTVYLQMNSLKPEDTAVYYCGARPWIKSGYCGQGTQVTVSS,high polyreactivity
5,QVQLVETGGGLVQAGGSLRLSCASSGFTLRVNDMGWYRQAPGKERELVAGITVSGGSTYYADSVKVRFTISRDNAKNTVYLQMNSLKPEDTAVYYCNADNYENATVMDYWGQGTQVTVSS,low polyreactivity
6,QVQLVETGGGLVQAGGSLRLSCDASGRIIRWYALGWYRQAPGKERELDAAITRSGSTFYADSVKWRFTISRDNAKNTVYLQMNSLKREDTADYYCNTCRWLYDTRYQFDEFDYWGQGTQVTVSS,high polyreactivity
7,QVQLVETGGGLVQAGGSLRLSSAASGITSNSYAMGWYRQAPGKERELVATITSGGSTNYADSVKGRFTITLDNAKNSVYLQMNSLKPEDTAVYYCNREYWLPTQYDYWGQGTQVTVSS,low polyreactivity
8,QVQLVETGGGLVQAGGSLRLSSAASGSILEGYAMGWYRQAPGKERELVPAISRSGGSTYYADSVKGRFTISRDNAKNTVYLQMKSLKPEDTAVYYCAARYRLDGTHLTGYAYYSWGQGTQGTVSS,high polyreactivity
9,QVQLVETGGGLVQAGGSLSLSCAASGRTCRFYAMGWYRQAPGKERELVGAISWNGGRTYYADSVKGRFTISRDNAKNSVYLQMNSLKPEDTAVYFCNARAYGSRKFEYWGQGTQVTVSS,high polyreactivity
10,QVQLVETGGGLVQAGGSRRVSCAASGFIFWWYPMGWYRQSPGKERELVAAISGRGGSTYYADSVKRRFTISRDNAKNTVYLQMNSQKPEDTAVYYCAARLPWSYYRTQGYNYGGQGTQVTVSS,high polyreactivity
11,QVQLVETGGGLVQAGVSLRLSSAASGLTYTQYALGWYRQAPGKERELVAAITSGGRRYYADSVKGRFTISRDNAKNTVYLQMNSLKPEDTAVYYCAVRGWCSARGMDYWGQGTQVTVSS,high polyreactivity
12,QVQLVETGGGLVQARGSLRLSCAASGRIFRRYAMGWYRQAPGKERELVAAISSGGSTDYADSVKGRFTISRDNAKNTVYLQMNSLKPEDTAVYYCARRGPYYNVGLFDSWGQGTQVTVSS,low polyreactivity
13,QVQLVETGGGLVQARGSLRLSCAASVRIFYYNAMGWYRQSPGKERELVAAITRSGSTNYAESVKGRFTISRDNAKNTVYLKMNSLKPEDTAVYYCAADSLKRYDYWGQGTQVTVSS,low polyreactivity
14,QVQLVETGGGLVQARGSLRLSSAASGIIFYRYAMGWYRQAPGKETDFVAAISWSGGSTTYADSVKGRFTISRDNAKNTVYLQMNSLKPVDTAVYYCNAERKYWSLWGPAYDYWGQGTQVTVSS,high polyreactivity
15,QVQLVETGGRIVQAGGSLRLSCAASGRIMDTNAMGWYRQAPGKEREFVAAITWIDGSTYYADSVKGRFTISRDNATNTVYLQMNSLKPEDTAVYYWNVQYTVDRYPSPPYSETGDYWGQGTQVTVSS,low polyreactivity
